# Laboratory results taken from patent publication EP3623383A1 (Deutsches Krebsforschungszentrum, Stiftung des öffentlichen …, dated 2020).
# T1: FLT3 as expressed on cells (NALM16 cells, FLT3+) (human, UniProt P36888 27-993)
# T1 construct: whole, on cells; Endogenous FLT3 of a human leukemia cell line; also called Nalm16 cells expressing FLT3
# T1 sequence (looked up): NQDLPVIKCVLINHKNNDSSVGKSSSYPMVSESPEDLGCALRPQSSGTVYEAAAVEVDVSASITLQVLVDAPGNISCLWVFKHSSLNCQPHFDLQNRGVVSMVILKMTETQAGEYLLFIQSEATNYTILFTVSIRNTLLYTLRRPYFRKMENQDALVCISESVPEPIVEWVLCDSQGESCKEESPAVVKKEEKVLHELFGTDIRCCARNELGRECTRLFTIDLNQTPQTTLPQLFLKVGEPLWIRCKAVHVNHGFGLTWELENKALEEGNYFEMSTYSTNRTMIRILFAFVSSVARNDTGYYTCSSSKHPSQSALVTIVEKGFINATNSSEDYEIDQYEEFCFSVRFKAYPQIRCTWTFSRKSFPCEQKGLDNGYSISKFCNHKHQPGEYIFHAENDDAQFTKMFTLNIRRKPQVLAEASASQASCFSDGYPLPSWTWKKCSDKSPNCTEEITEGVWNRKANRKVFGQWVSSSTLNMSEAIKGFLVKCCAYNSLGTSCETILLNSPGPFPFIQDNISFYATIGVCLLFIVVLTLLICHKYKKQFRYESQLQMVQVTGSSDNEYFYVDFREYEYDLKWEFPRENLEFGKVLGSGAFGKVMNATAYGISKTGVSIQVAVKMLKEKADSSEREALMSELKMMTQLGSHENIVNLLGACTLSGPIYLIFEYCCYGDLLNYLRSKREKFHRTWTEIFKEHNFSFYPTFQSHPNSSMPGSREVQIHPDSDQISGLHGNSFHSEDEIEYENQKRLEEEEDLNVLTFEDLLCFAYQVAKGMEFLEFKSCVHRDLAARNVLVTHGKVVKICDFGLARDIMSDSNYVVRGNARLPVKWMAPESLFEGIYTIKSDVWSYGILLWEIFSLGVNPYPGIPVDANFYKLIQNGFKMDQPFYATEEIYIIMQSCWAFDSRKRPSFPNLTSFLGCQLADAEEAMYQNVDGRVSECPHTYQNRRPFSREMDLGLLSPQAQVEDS
# Biological target: T1, FLT3 as expressed on cells (NALM16 …)
# Assay: flow cytometry on FLT3+ NALM16 cells; value told of the FLT3 binding part shared by V6 to V9
row,Binder,EC50 [nM]
1,"V6-V8 (CC-2 variant, parental 4G8 FLT3 domain with UCHT1 CD3 scFv variant V8) (bispecific antibody, human IgG1, kappa, IgGsc format, Fc-attenuated) heavy: QVQLQQPGAELVKPGASLKLSCKSSGYTFTSYWMHWVRQRPGHGLEWIGEIDPSDSYKDYNQKFKDKATLTVDRSSNTAYMHLSSLTSDDSAVYYCARAITTTPFDFWGQGTTLTVSSASTKGPSVFPLAPSSKSTSGGTAALGCLVKDYFPEPVTVSWNSGALTSGVHTFPAVLQSSGLYSLSSVVTVPSSSLGTQTYICNVNHKPSNTKVDKKVEPKSCDKTHTCPPCPAPPVAGPSVFLFPPKPKDTLMISRTPEVTCVVVGVSHEDPEVKFNWYVDGVEVHNAKTKPREEQYNSTYRVVSVLTVLHQDWLNGKEYKCKVSNKQLPSPIEKTISKAKGQPREPQVYTLPPSRDELTKNQVSLTCLVKGFYPSDIAVEWESNGQPENNYKTTPPVLDSDGSFFLYSKLTVDKSRWQQGNVFSCSVMHEALHNHYTQKSLSLSPGKSGDIQMTQSPSSLSASVGDRVTITCRASQDIRNYLNWYQQKPGKAPKLLIYYTSRLESGVPSRFSGSGSGTDYTLTISSLQPEDFATYYCQQGNTLPWTFGQGTKVEIKGGGGSGGGGSGGGGSEVQLVESGGGLVQPGGSLRLSCAASGYSFTGYTMNWVRQAPGKGLEWVALINPYKGVSTYNQKFKDRFTISVDDSKNTAYLQMNSLRAEDTAVYYCARSGYYGDSDWYFDVWGQGTLVTVSS light: DIVLTQSPATLSVTPGDSVSLSCRASQSISNNLHWYQQKSHESPRLLIKYASQSISGIPSRFSGSGSGTDFTLSINSVETEDFGVYFCQQSNTWPYTFGGGTKLEIKRTVAAPSVFIFPPSDEQLKSGTASVVCLLNNFYPREAKVQWKVDNALQSGNSQESVTEQDSKDSTYSLSSTLTLSKADYEKHKVYACEVTHQGLSSPVTKSFNRGEC",~1
2,"V6-V9 (CC-2 variant, parental 4G8 FLT3 domain with UCHT1 CD3 scFv variant V9) (bispecific antibody, human IgG1, kappa, IgGsc format, Fc-attenuated) heavy: QVQLQQPGAELVKPGASLKLSCKSSGYTFTSYWMHWVRQRPGHGLEWIGEIDPSDSYKDYNQKFKDKATLTVDRSSNTAYMHLSSLTSDDSAVYYCARAITTTPFDFWGQGTTLTVSSASTKGPSVFPLAPSSKSTSGGTAALGCLVKDYFPEPVTVSWNSGALTSGVHTFPAVLQSSGLYSLSSVVTVPSSSLGTQTYICNVNHKPSNTKVDKKVEPKSCDKTHTCPPCPAPPVAGPSVFLFPPKPKDTLMISRTPEVTCVVVGVSHEDPEVKFNWYVDGVEVHNAKTKPREEQYNSTYRVVSVLTVLHQDWLNGKEYKCKVSNKQLPSPIEKTISKAKGQPREPQVYTLPPSRDELTKNQVSLTCLVKGFYPSDIAVEWESNGQPENNYKTTPPVLDSDGSFFLYSKLTVDKSRWQQGNVFSCSVMHEALHNHYTQKSLSLSPGKSGEVQLVESGGGLVQPGGSLRLSCAASGYSFTGYTMNWVRQAPGKGLEWVALINPYKGVSTYNQKFKDRFTISVDKSKNTAYLQMNSLRAEDTAVYYCARSGYYGDSDWYFDVWGQGTLVTVSSGGGGSGGGGSGGGGSDIQMTQSPSSLSASVGDRVTITCRASQDIRNYLNWYQQKPGKAPKLLIYYTSRLESGVPSRFSGSGSGTDYTLTISSLQPEDFATYYCQQGNTLPWTFGQGTKVEIK light: DIVLTQSPATLSVTPGDSVSLSCRASQSISNNLHWYQQKSHESPRLLIKYASQSISGIPSRFSGSGSGTDFTLSINSVETEDFGVYFCQQSNTWPYTFGGGTKLEIKRTVAAPSVFIFPPSDEQLKSGTASVVCLLNNFYPREAKVQWKVDNALQSGNSQESVTEQDSKDSTYSLSSTLTLSKADYEKHKVYACEVTHQGLSSPVTKSFNRGEC",~1
3,"V6-V6 (CC-2, FLT3 (4G8) x CD3 (humanized UCHT1) bispecific IgGsc antibody) (bispecific antibody, Mouse 4G8 variable regions on human IgG1 constant regions, Fc-attenuated, C-terminal humanized UCHT1 scFv; also called mouse FLT3xCD3 bispecific antibody) heavy: QVQLQQPGAELVKPGASLKLSCKSSGYTFTSYWMHWVRQRPGHGLEWIGEIDPSDSYKDYNQKFKDKATLTVDRSSNTAYMHLSSLTSDDSAVYYCARAITTTPFDFWGQGTTLTVSSASTKGPSVFPLAPSSKSTSGGTAALGCLVKDYFPEPVTVSWNSGALTSGVHTFPAVLQSSGLYSLSSVVTVPSSSLGTQTYICNVNHKPSNTKVDKKVEPKSCDKTHTCPPCPAPPVAGPSVFLFPPKPKDTLMISRTPEVTCVVVGVSHEDPEVKFNWYVDGVEVHNAKTKPREEQYNSTYRVVSVLTVLHQDWLNGKEYKCKVSNKQLPSPIEKTISKAKGQPREPQVYTLPPSRDELTKNQVSLTCLVKGFYPSDIAVEWESNGQPENNYKTTPPVLDSDGSFFLYSKLTVDKSRWQQGNVFSCSVMHEALHNHYTQKSLSLSPGKSGDIQMTQSPSSLSASVGDRVTITCRASQDIRNYLNWYQQKPGKAPKLLIYYTSRLESGVPSRFSGSGSGTDYTLTISSLQPEDFATYYCQQGNTLPWTFGQGTKVEIKGGGGSGGGGSGGGGSEVQLVESGGGLVQPGGSLRLSCAASGYSFTGYTMNWVRQAPGKGLEWVALINPYKGVSTYNQKFKDRFTISVDKSKNTAYLQMNSLRAEDTAVYYCARSGYYGDSDWYFDVWGQGTLVTVSS light: DIVLTQSPATLSVTPGDSVSLSCRASQSISNNLHWYQQKSHESPRLLIKYASQSISGIPSRFSGSGSGTDFTLSINSVETEDFGVYFCQQSNTWPYTFGGGTKLEIKRTVAAPSVFIFPPSDEQLKSGTASVVCLLNNFYPREAKVQWKVDNALQSGNSQESVTEQDSKDSTYSLSSTLTLSKADYEKHKVYACEVTHQGLSSPVTKSFNRGEC",~1
4,"V6-V7 (CC-2 variant, parental 4G8 FLT3 domain with UCHT1 CD3 scFv variant V7) (bispecific antibody, human IgG1, kappa, IgGsc format, Fc-attenuated) heavy: QVQLQQPGAELVKPGASLKLSCKSSGYTFTSYWMHWVRQRPGHGLEWIGEIDPSDSYKDYNQKFKDKATLTVDRSSNTAYMHLSSLTSDDSAVYYCARAITTTPFDFWGQGTTLTVSSASTKGPSVFPLAPSSKSTSGGTAALGCLVKDYFPEPVTVSWNSGALTSGVHTFPAVLQSSGLYSLSSVVTVPSSSLGTQTYICNVNHKPSNTKVDKKVEPKSCDKTHTCPPCPAPPVAGPSVFLFPPKPKDTLMISRTPEVTCVVVGVSHEDPEVKFNWYVDGVEVHNAKTKPREEQYNSTYRVVSVLTVLHQDWLNGKEYKCKVSNKQLPSPIEKTISKAKGQPREPQVYTLPPSRDELTKNQVSLTCLVKGFYPSDIAVEWESNGQPENNYKTTPPVLDSDGSFFLYSKLTVDKSRWQQGNVFSCSVMHEALHNHYTQKSLSLSPGKSGDIQMTQSPSSLSASVGDRVTITCRASQDIRNYLNWYQQKPGKAPKLLIYYTSRLESGVPSRFSGSGSGTDYTLTISSLQPEDFATYYCQQGNTLPWTFGQGTKVEIKGGGGSGGGGSGGGGSEVQLVESGGGLVQPGGSLRLSCAASGYSFTGYTMNWVRQAPGKGLEWVALINPYKGVSTYADSFKGRFTISVDDSKNTAYLQMNSLRAEDTAVYYCARSGYYGDSDWYFDVWGQGTLVTVSS light: DIVLTQSPATLSVTPGDSVSLSCRASQSISNNLHWYQQKSHESPRLLIKYASQSISGIPSRFSGSGSGTDFTLSINSVETEDFGVYFCQQSNTWPYTFGGGTKLEIKRTVAAPSVFIFPPSDEQLKSGTASVVCLLNNFYPREAKVQWKVDNALQSGNSQESVTEQDSKDSTYSLSSTLTLSKADYEKHKVYACEVTHQGLSSPVTKSFNRGEC",~1
